Source: patent US20240002497A1 (Merck Sharp & Dohme, published 2024)

B1: F0103387G04 (parental)-FLAG-HIS6 (VHH)
VHH: EVQLVESGGGLAQPGGSLRLSCAASGPVFNINKMAWYRRAPGKQRELVASVTPTGSISYTDSVKGRFTISRDGSKRWSLQMNSLTPEDTAVYYCNALLQPDSYSNTRTYWGQGTLVTVSS
notes: also called F01033387G04
B2: F0103PMP495F09 (bispecific antibody)
chain: EVQLVESGGGLVQPGGSLRLSCAASGSIFNINSMAWYRRAPGKQRELVASSTNGGSTNYADSVKGRFTISRDNAKRVYLQMNSLTPEDTAVYYCRALLQPSIYDISRTYWGQGTLVTVSSGGGGSGGGGSGGGGSGGGGSGGGGSGGGGSGGGGSGGGGSGGGGSGGGGSEVQLVESGGGLVQAGSSLSLSCAASGRALSTYAMGWFRQAPGKEREFVARISRSGITTYYTDSVKGRFTISRDRAKDTVYLQMNSLKPEDTAIYLCAADASTNPAGYYLRNRYDYWGQGTLVTVSSAAADYKDHDGDYKDHDIDYKDDDDKGAAHHHHHHKAAGGGGG
notes: crude periplasmic extract; also called F103275B05(N93R)-50GS-F0103495F09 bivalent ISVD
B3: F0103PMP500E03 (bispecific antibody)
chain: EVQLVESGGGLVQPGGSLRLSCAASGSIFNINSMAWYRRAPGKQRELVASSTNGGSTNYADSVKGRFTISRDNAKRVYLQMNSLTPEDTAVYYCRALLQPSIYDISRTYWGQGTLVTVSSGGGGSGGGGSGGGGSGGGGSGGGGSGGGGSGGGGSGGGGSGGGGSGGGGSEVQLVESGGGLVQAGGSLRLSCAASGRTFSRYQMGWFRQAPGKEREFVAYISWSGSTRYVDSVKGRFTISRDNAKNTVYLQMNSLKPEDTAVYHCAAGTAGIISSRPETYDSWGQGTQVTVSSAAADYKDHDGDYKDHDIDYKDDDDKGAAHHHHHHKAA
notes: crude periplasmic extract; also called F103275B05(N93R)-50GS-F0103500E03 bivalent ISVD
B4: F0103PMP505D08 (bispecific antibody)
chain: EVQLVESGGGLVQPGGSLRLSCAASGSIFNINSMAWYRRAPGKQRELVASSTNGGSTNYADSVKGRFTISRDNAKRVYLQMNSLTPEDTAVYYCRALLQPSIYDISRTYWGQGTLVTVSSGGGGSGGGGSGGGGSGGGGSGGGGSGGGGSGGGGSGGGGSGGGGSGGGGSEVQLVESGGGLVQAGGSLRLSCVTSGRTSDLSTMNWFRQAPGKEREFVARITRRGSTYYAESVKERFIISRDNAKNTVYLQMNSLKPEDTANYYCTAASEMGYHYRGQGTQVTVSSAAADYKDHDGDYKDHDIDYKDDDDKGAAHHHHHHKAAGGGGG
notes: crude periplasmic extract; also called F103275B05(N93R)-50GS-F0103505D08 bivalent ISVD
B5: F0103464B09 (parental)-FLAG-HIS6 (VHH)
VHH: EVQLVESGGGLVQPGGSLRLSCATTSRAFIRDVFTGWYRRVPGKERELVARIYNGGNTNYADFAKGRFSISRDNAKKMVTLRMSNLKPEDTGVYYCLFSGTINTGREYRSGDYWGQGTLVTVSS
notes: also called F103464B09

Key:
[1] = molecular target: rhNav1.7α (rhesus monkey, UniProt Q15858 1-1988 (human entry)); test: cell-based or functional assay
[2] = molecular target: T1, huNav1.8α (human, UniProt Q9Y5Y9 1-1956); test: binding FACS on stable cell lines
T1 construct: also called huNav1.8 (alpha subunit)

[3] = molecular target: T2, huNav1.5α+β1-β2-β3 (human, UniProt Q14524 1-2016; A5A6L6 19-218; O60939 30-215; Q2KI11 23-215); test: binding FACS, HEK FlpIn cells
T2 construct: in the cell P2A cleaves it into α, β1, β2, β3; also called huNav1.5-beta1-beta2-beta3
Experimental: (§1) Binding of the ISVDs to cell-expressed Nav1.7α was detected via murine anti-Flag (Sigma, catalog #F1804). Briefly, cells were resuspended in FACS buffer (PBS, 10% FBS, NaN₃) and transferred to a 96-well V-bottom plate at 1×10^5 cells/well. Purified FLAG3-tagged ISVD was diluted in FACS buffer and added to the cells for 30 minutes at 4° C. […] Prior to the read-out, the samples were resuspended in 1 μg/mL propidium iodide (Sigma, catalog #P4170) to exclude dead cells. Between each step, the cells were centrifuged for 5 minutes at 200 grams and washed with 100 μL/well FACS buffer.
(§2) Crude periplasmic extracts containing ISVDs from phage display selections (as described above) were screened in FACS for binding to huNav1.7α but not to huNav1.5a. […] As used in Table 8, the drawings, and throughout the description, Navβ1, Navβ2, and Navβ3 are human homologs unless specifically identified otherwise.

[4] = molecular target: T3, huNav157chimera14+β1-β2-β3 (human, UniProt Q07699 19-218; O60939 30-215; Q9NY72 23-215); test: binding FACS with purified FLAG3-HIS6 tagged ISVDs
T3 construct: HEK FlpIn line; also called huNav157 chimera 14-beta1-beta2-beta3; Nav157ch14-β1-β2-β3
Experimental: as §1, §2

[5] = molecular target: T4, huNav157chim14 (human); test: binding FACS, HEK Flp-In
T4 construct: HEK Flp-In cells; also called huNav157 chimera 14

[6] = molecular target: T5, huNav157chim14-β1-β2-β3 (human); test: binding FACS, HEK Flp-In
T5 construct: Whole entry; HEK Flp-In cells; also called huNav157 chimera 14-beta1-beta2-beta3

[7] = molecular target: T6, huNav1.5-β1-β2-β3 (human); test: binding FACS, HEK Flp-In
T6 construct: Whole entry; CHO Flp-In or HEK Flp-In cells; also called huNav1.5-beta1-beta2-beta3

[8] = molecular target: T7, rhNav1.7α + β1-β2-β3 (rhesus monkey); test: FACS, CHO Flp-In, competitor 1 µM IRR00092
T7 construct: also called rhNav1.7-beta1-beta2-beta3; rhNav1.7-β1-β2-β3

[9] = molecular target: T8, huNav1.7α + β1-β2-β3 (human, UniProt Q15858 1-1988; A5A6L6 19-218; O60939 30-215; Q2KI11 23-215); test: FACS, CHO Flp-In, competitor 1 µM IRR00092
T8 construct: also called huNav1.7-beta1-beta2-beta3; huNav1.7-β1-β2-β3

[10] = molecular target: T6, huNav1.5-β1-β2-β3; test: FACS, CHO Flp-In, competitor 1 µM IRR00092
[11] = molecular target: T7, rhNav1.7α + β1-β2-β3; test: FACS, CHO Flp-In, competitor 1 µM F010300703
[12] = molecular target: T6, huNav1.5-β1-β2-β3; test: FACS, CHO Flp-In, competitor 1 µM F010300703
[13] = molecular target: T8, huNav1.7α + β1-β2-β3; test: binding FACS, CHO Flp-In, periplasmic extract
[14] = molecular target: T6, huNav1.5-β1-β2-β3; test: binding FACS, CHO Flp-In, periplasmic extract
[15] = molecular target: huNav1.1α (human, UniProt P35498 1-2009); test: binding FACS on stable huNav1.x paralog HEK293T cell lines
[16] = molecular target: T9, huNav1.2α (human, UniProt Q99250 1-2005); test: as above
T9 construct: also called huNav1.2 (alpha subunit)

[17] = molecular target: T1, huNav1.8α; test: as above
[18] = molecular target: T10, huNav1.4α (human, UniProt P35499 1-1836); test: as above
T10 construct: also called huNav1.4 (alpha subunit)

[19] = molecular target: T11, huNav1.3α (human, UniProt Q9NY46 1-2000); test: as above
T11 construct: also called huNav1.3 (alpha subunit)

[20] = molecular target: T12, huNav1.6α (human, UniProt Q9UQD0 1-1980); test: as above
T12 construct: also called huNav1.6 (alpha subunit)

[21] = molecular target: T13, huNav1.5α (human, UniProt Q14524 1-2016); test: as above
T13 construct: also called huNav1.5 (alpha subunit)

[22] = molecular target: T14, huNav1.7α+β1-β2-β3 (human, UniProt Q15858 1-1988; Q07699 19-218; O60939 30-215; Q9NY72 23-215); test: binding FACS, CHO FlpIn cells
T14 construct: 5N11S variant; also called huNav1.7-beta1-beta2-beta3; huNav1.7α+Navβ1-Navβ2-Navβ3
Experimental: as §1, §2

[23] = molecular target: T15, rhNav1.7α+β1-β2-β3 (rhesus monkey α subunit with human β …); test: binding FACS, CHO FlpIn cells
T15 construct: P2A cleaves it into α, β1, β2, β3; also called rhNav1.7-beta1-beta2-beta3
Experimental: as §1, §2

[24] = molecular target: T16, huNav1.7α+β1 (human, UniProt Q15858 1-1988; Q07699 19-218); test: binding FACS, HEK293 cells
T16 construct: also called huNav1.7-beta1; HEKa/β1
Experimental: as §1, §2

T1 sequence (Q9Y5Y9 whole entry): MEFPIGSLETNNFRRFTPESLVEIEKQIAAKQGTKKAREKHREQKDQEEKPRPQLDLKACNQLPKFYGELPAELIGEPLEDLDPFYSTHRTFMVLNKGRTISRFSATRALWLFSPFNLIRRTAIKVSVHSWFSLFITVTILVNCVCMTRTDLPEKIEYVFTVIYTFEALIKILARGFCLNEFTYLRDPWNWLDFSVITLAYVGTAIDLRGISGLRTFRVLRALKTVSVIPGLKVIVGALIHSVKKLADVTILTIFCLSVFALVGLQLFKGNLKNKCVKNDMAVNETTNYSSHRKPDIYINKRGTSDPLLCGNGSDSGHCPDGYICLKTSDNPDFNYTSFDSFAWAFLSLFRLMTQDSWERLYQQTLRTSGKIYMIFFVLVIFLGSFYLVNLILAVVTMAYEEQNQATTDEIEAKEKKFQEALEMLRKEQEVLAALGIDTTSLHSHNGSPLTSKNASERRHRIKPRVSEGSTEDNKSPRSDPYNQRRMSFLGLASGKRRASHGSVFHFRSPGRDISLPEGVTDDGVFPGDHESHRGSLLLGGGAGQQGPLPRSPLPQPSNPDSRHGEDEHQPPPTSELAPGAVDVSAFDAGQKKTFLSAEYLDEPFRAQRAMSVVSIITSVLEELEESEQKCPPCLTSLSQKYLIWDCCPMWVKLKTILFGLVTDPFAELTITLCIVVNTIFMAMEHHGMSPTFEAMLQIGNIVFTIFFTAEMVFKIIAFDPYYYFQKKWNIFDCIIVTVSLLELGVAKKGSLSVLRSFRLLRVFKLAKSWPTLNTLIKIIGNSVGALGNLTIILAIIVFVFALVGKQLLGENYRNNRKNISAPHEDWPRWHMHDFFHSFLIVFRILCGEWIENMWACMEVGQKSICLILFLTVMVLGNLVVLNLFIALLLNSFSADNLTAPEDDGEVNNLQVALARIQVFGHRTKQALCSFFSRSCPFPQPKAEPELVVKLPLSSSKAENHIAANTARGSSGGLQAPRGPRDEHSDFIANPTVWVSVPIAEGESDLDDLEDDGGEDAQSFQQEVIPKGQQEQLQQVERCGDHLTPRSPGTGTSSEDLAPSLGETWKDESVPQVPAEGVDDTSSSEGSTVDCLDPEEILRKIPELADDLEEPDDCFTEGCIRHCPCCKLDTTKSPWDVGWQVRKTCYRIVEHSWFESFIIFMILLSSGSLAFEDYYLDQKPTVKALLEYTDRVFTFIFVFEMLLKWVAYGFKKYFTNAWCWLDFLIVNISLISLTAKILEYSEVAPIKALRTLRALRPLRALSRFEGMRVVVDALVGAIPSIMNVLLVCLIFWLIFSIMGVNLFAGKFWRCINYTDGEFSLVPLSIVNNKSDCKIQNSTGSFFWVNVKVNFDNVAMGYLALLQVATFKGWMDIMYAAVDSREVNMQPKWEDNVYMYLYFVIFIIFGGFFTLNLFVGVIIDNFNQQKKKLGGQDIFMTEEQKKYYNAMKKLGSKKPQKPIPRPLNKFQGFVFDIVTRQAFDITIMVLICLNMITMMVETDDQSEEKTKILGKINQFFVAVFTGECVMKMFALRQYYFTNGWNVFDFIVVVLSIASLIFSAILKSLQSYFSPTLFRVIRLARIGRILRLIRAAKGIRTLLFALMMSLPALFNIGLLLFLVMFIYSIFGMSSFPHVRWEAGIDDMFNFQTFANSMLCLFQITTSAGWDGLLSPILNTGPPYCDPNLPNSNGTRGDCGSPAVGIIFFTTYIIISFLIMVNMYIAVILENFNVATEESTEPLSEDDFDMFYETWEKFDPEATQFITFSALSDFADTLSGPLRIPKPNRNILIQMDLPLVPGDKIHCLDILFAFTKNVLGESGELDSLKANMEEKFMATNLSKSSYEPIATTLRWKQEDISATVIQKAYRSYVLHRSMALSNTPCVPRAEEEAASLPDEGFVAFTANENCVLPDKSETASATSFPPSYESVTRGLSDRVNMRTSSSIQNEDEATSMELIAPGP
T10 sequence (P35499 whole entry): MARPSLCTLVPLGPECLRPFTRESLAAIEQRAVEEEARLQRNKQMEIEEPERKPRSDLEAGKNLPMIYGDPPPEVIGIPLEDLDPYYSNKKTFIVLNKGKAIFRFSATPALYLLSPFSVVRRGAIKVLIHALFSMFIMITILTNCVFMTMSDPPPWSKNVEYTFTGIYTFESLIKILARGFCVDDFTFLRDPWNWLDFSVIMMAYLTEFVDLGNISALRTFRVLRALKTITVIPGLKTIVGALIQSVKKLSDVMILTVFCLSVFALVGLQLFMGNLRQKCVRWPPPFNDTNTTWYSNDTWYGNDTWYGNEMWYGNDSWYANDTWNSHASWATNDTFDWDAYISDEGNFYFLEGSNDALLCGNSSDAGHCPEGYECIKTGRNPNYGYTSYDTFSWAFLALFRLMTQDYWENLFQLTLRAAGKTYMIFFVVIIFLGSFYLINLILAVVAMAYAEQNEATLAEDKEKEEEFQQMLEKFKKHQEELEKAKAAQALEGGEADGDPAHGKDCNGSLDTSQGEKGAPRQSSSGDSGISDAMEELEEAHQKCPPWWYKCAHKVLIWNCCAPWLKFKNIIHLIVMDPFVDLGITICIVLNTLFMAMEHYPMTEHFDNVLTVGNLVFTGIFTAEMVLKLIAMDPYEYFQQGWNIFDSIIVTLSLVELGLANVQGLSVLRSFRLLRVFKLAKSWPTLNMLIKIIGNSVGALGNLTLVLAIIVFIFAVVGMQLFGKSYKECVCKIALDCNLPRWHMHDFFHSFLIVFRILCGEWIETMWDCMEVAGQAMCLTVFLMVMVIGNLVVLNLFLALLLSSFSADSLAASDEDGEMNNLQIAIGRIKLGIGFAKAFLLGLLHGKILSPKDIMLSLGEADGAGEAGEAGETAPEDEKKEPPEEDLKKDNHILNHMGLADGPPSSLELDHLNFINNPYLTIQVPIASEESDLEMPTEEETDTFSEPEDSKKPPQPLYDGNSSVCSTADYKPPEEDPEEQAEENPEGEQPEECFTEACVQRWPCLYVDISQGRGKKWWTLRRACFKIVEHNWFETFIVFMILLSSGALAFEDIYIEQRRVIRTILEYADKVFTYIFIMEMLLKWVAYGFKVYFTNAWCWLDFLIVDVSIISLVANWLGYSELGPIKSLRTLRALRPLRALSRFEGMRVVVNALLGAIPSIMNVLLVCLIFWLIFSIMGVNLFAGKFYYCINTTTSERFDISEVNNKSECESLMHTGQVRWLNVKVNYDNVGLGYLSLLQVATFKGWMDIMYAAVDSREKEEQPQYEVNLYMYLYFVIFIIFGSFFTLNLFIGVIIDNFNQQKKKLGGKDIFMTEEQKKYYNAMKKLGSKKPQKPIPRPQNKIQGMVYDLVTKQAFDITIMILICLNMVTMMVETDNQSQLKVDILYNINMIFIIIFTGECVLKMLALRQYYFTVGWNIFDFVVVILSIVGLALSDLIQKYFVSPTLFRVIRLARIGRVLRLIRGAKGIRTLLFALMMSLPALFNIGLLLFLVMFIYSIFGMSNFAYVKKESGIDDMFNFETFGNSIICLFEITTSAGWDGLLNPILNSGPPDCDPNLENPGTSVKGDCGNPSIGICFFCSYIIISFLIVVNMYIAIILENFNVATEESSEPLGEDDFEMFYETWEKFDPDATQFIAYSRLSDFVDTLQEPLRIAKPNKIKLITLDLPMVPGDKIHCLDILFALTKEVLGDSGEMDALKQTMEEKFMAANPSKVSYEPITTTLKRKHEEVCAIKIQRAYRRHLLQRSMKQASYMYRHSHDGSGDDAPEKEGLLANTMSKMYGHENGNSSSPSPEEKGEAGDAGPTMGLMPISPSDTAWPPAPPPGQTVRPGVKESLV

| Binder | binding result [3] | binding result [4] | MFI [5] [MFI] | MFI [6] [MFI] | MFI [7] [MFI] | MFI [8] [MFI] | MFI [9] [MFI] | MFI [10] [MFI] | MFI [11] [MFI] | MFI [12] [MFI] | MFI [13] [MFI] | MFI [14] [MFI] | further results |
| --- | --- | --- | --- | --- | --- | --- | --- | --- | --- | --- | --- | --- | --- |
| B1 | no binding | binds |  |  |  |  |  |  |  |  |  |  | 2-pulse IC50 [M], P1 [1]: 7e-06 M; 2-pulse IC50 [M], P2 [1]: 3e-06 M; binding result [2]: no binding |
| B2 |  |  | 45100 | 128000 | 976 | 90400 | 93300 | 930 | 6280 | 645 | 35600 | 483 |  |
| B3 |  |  | 47300 | 87200 | 1110 | 96900 | 33700 | 975 | 21500 | 852 | 22400 | 521 |  |
| B4 |  |  | 78400 | 136000 | 1200 | 108000 | 95400 | 964 | 22500 | 845 | 106000 | 891 |  |
| B5 | no binding | binds |  |  |  |  |  |  |  |  |  |  | binding result [15]: no binding; binding result [16]: no binding; binding result [17]: no binding; binding result [18]: no binding; binding result [19]: no binding; binding result [20]: no binding; binding result [21]: no binding; EC50 [22]: 4.1 nM; EC50 [23]: 27 nM; EC50 [24]: 4.1 nM |
